From article PMC4874879 (Molecular cell, 2016)

T1: FLAG- and V5-tagged ATXN7L3 (UniProt Q14CW9 1-347)
T1 sequence (looked up): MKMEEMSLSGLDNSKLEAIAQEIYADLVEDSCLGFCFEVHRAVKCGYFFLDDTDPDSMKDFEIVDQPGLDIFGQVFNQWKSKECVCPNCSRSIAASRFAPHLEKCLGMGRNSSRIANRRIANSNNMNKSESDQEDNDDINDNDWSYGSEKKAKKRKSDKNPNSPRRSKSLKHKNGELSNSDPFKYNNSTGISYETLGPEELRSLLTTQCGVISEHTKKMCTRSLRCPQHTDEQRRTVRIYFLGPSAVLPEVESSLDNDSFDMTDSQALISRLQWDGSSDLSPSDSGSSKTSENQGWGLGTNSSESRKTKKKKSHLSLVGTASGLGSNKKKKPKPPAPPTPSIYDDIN

B1: USP51 (endogenous) (enzyme, human (endogenous in 293T), UniProt Q70EK9 1-711, looked up)
chain: MAQVRETSLPSGSGVRWISGGGGGASPEEAVEKAGKMEEAAAGATKASSRREAEEMKLEPLQEREPAPEENLTWSSSGGDEKVLPSIPLRCHSSSSPVCPRRKPRPRPQPRARSRSQPGLSAPPPPPARPPPPPPPPPPPAPRPRAWRGSRRRSRPGSRPQTRRSCSGDLDGSGDPGGLGDWLLEVEFGQGPTGCSHVESFKVGKNWQKNLRLIYQRFVWSGTPETRKRKAKSCICHVCSTHMNRLHSCLSCVFFGCFTEKHIHKHAETKQHHLAVDLYHGVIYCFMCKDYVYDKDIEQIAKETKEKILRLLTSTSTDVSHQQFMTSGFEDKQSTCETKEQEPKLVKPKKKRRKKSVYTVGLRGLINLGNTCFMNCIVQALTHIPLLKDFFLSDKHKCIMTSPSLCLVCEMSSLFHAMYSGSRTPHIPYKLLHLIWIHAEHLAGYRQQDAHEFLIAILDVLHRHSKDDSGGQEANNPNCCNCIIDQIFTGGLQSDVTCQACHSVSTTIDPCWDISLDLPGSCATFDSQNPERADSTVSRDDHIPGIPSLTDCLQWFTRPEHLGSSAKIKCNSCQSYQESTKQLTMKKLPIVACFHLKRFEHVGKQRRKINTFISFPLELDMTPFLASTKESRMKEGQPPTDCVPNENKYSLFAVINHHGTLESGHYTSFIRQQKDQWFSCDDAIITKATIEDLLYSEGYLLFYHKQGLEKD

Key:
[1] = molecular target: FLAG- and V5-tagged ATXN7L3 (UniProt Q14CW9); assay: affinity purification with mass spectrometry
[2] = molecular target: T1, FLAG- and V5-tagged ATXN7L3; assay: affinity purification with mass spectrometry

Molecule	fold increase of association with ATXN7L3 upon depletion of USP22 [1] [fold]	fold increase of association with ATXN7L3 upon depletion of USP22 [2] [fold]
USP27X (endogenous) (enzyme)	5.5	–
B1	–	~4
